This is an account of results in the supplement of paper PMC9112550, “Optimization of the antimicrobial peptide Bac7 by deep mutational scanning” (BMC Biology, 2022).
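Note: peptides expressed intracellularly from a pBAD plasmid library in pooled LB shake-flask culture, induced with 0.3% L-arabinose, DNA abundance read by NGS, three biological replicates, DESeq2 with apeglm shrinkage.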

This data set deals with Escherichia coli TOP10. The data set is described as follows: shrunken log2 fold change of peptide-encoding DNA abundance (4.5 h post-induction vs induction); higher = less antimicrobial activity (less host growth inhibition). The conditions noted are these: time post-induction: 4.5 h; library: site-saturation at positions 5, 18, 19, 20.
As to RRIRFRPPRLPRPRPRPYCQPRP, the “shrunken log2 fold change” value was -0.131.
RRIRYRPPRLPRPRPRPIPQPRP: the “shrunken log2 fold change” value was -0.0934.
Consider RRIRLRPPRLPRPRPRPVCCPRP, for which the “shrunken log2 fold change” value was -0.185.
With RRIRIRPPRLPRPRPRPRCPPRP the figure was 0.0321.
